{
  "source": "paper PMC10901769",
  "about": "“An anti-CRISPR that represses its own transcription while blocking Cas9-target DNA binding”",
  "molecules": {"B1": {"name": "IR1 (dsDNA)", "DNA 1": "ATAATTATGACAAATGTCATAGAAAA", "DNA 2": "TTTTCTATGACATTTGTCATAATTAT"}, "B2": {"name": "IR1 mutant in four base pairs (dsDNA)", "DNA 1": "ATAATTGTTACAAATGTAACAGAAAA", "DNA 2": "TTTTCTGTTACATTTGTAACAATTAT"}, "B3": {"name": "IR1'' (dsDNA)", "DNA 1": "ATTATGACAAATGTCATAG", "DNA 2": "TCTATGACATTTGTCATAA"}, "B4": {"name": "Cy3-IR1 (dsDNA)", "DNA 1": "ATAATTATGACAAATGTCATAGAAAA", "DNA 2": "TTTTCTATGACATTTGTCATAATTAT"}, "B5": {"name": "IR2 (dsDNA)", "DNA 1": "TGACTTATGACGAACGTCATAATATA", "DNA 2": "TATATTATGACGTTCGTCATAAGTCA"}},
  "key": {"[1]": {"biological_target": "full-length AcrIIA15 (Staphylococcus (identified from Staphylococcus genomes))", "assay": "crystal structure; free full-length AcrIIA15; 2.34 Å"}, "[2]": {"biological_target": "full-length AcrIIA15 (Staphylococcus (identified from Staphylococcus genomes))", "assay": "cryo-EM structure; SaCas9-sgRNA-AcrIIA15-IR1 quaternary complex, mixed at 1:1.1:0.9:0.6, purified by SEC in 20 mM Tris pH 7.5, 0.1 M NaCl; 3.82 Å"}, "[3]": {"biological_target": "full-length AcrIIA15 (Staphylococcus (identified from Staphylococcus genomes))", "assay": "SEC; dimerization state of wild-type or mutated AcrIIA15; Superdex 75, 20 mM Tris-HCl pH 7.5, 0.5 M NaCl"}, "[4]": {"biological_target": "full-length AcrIIA15 (Staphylococcus (identified from Staphylococcus genomes))", "assay": "crystal structure; AcrIIA15 (full-length or NTD) with IR1 promoter DNA, mixed at 2:1.1 in 20 mM Tris pH 7.5, 100 mM NaCl; 3.15 Å and 3.10 Å"}, "[5]": {"biological_target": "full-length AcrIIA15 R2A mutant (Staphylococcus (identified from Staphylococcus genomes))", "assay": "SEC; dimerization state of wild-type or mutated AcrIIA15; Superdex 75, 20 mM Tris-HCl pH 7.5, 0.5 M NaCl"}, "[6]": {"biological_target": "N-terminal domain of AcrIIA15 (AcrIIA15^NTD) (Staphylococcus (identified from Staphylococcus genomes))", "assay": "crystal structure; AcrIIA15 (full-length or NTD) with IR1 promoter DNA, mixed at 2:1.1 in 20 mM Tris pH 7.5, 100 mM NaCl; 3.15 Å and 3.10 Å"}, "[7]": {"biological_target": "T1, SaCas9;AcrIIA15 full-length (Staphylococcus aureus;, UniProt J7RUA5;PDB:8JG9_3 1-1053;1-171, |)", "T1 sequence 1": "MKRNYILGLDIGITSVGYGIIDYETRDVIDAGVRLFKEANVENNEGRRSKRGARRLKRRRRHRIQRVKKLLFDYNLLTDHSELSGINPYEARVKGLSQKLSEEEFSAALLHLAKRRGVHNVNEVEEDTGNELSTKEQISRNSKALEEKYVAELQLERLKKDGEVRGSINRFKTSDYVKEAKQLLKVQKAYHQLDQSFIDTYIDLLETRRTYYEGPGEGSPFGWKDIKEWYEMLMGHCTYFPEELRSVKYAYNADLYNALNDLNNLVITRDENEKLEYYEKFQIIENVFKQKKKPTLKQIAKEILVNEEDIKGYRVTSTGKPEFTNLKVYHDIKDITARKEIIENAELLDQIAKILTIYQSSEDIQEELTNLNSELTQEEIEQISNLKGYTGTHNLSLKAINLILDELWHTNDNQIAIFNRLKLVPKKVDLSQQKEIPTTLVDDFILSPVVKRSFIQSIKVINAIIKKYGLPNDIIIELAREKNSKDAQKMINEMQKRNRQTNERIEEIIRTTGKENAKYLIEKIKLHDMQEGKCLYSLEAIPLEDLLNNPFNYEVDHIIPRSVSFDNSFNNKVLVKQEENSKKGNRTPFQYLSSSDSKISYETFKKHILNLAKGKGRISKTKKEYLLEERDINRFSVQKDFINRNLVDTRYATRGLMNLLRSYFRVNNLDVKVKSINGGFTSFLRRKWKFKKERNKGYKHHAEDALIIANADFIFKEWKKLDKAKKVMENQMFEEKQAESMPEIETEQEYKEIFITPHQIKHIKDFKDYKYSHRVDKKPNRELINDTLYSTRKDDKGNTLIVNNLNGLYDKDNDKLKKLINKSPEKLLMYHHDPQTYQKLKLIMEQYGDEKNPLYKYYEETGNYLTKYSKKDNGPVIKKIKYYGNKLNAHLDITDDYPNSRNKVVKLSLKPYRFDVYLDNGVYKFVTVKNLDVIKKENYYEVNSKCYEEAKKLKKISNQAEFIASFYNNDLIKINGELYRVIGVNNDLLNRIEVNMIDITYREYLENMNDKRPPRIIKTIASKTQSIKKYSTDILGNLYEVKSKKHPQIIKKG", "T1 sequence 2": "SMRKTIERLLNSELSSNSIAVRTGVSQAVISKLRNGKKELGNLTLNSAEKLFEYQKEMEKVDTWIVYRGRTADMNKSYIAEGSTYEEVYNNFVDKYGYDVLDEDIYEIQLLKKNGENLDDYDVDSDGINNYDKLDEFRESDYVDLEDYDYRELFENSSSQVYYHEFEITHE", "assay": "cryo-EM; with sgRNA; AcrIIA15 dimer, two SaCas9-sgRNA; Promoter EMSA: 20 mM Tris-HCl pH 7.5, 300 mM NaCl, on ice/4 C, 30 min; SaCas9 EMSA: 20 mM Tris pH 7.5, 200 mM NaCl, 10 mM EDTA, RT; SPR: 10 mM Na2HPO4, 2 mM KH2PO4, 0.3 M NaCl; SEC: 20 mM Tris pH 7.5, 300 mM NaCl", "conditions": "protein: recombinant;recombinant; tags: His6-Sumo removed by Ulp1;C-terminal His6, or His6-Sumo removed by Ulp1; chain copies: 2;2; blunt"}, "[8]": {"biological_target": "T2, AcrIIA15 full-length (UniProt PDB:8JG9_3 1-171)", "T2 sequence": "T1 sequence 2", "assay": "SPR; Promoter EMSA: 20 mM Tris-HCl pH 7.5, 300 mM NaCl, on ice/4 C, 30 min; SaCas9 EMSA: 20 mM Tris pH 7.5, 200 mM NaCl, 10 mM EDTA, RT; SPR: 10 mM Na2HPO4, 2 mM KH2PO4, 0.3 M NaCl; SEC: 20 mM Tris pH 7.5, 300 mM NaCl", "conditions": "protein: recombinant; tags: C-terminal His6, or His6-Sumo removed by Ulp1; chain copies: 2; blunt"}, "[9]": {"biological_target": "T2, AcrIIA15 full-length", "assay": "EMSA; Promoter EMSA: 20 mM Tris-HCl pH 7.5, 300 mM NaCl, on ice/4 C, 30 min; SaCas9 EMSA: 20 mM Tris pH 7.5, 200 mM NaCl, 10 mM EDTA, RT; SPR: 10 mM Na2HPO4, 2 mM KH2PO4, 0.3 M NaCl; SEC: 20 mM Tris pH 7.5, 300 mM NaCl", "conditions": "protein: recombinant; tags: C-terminal His6, or His6-Sumo removed by Ulp1; chain copies: 2; blunt"}, "[10]": {"biological_target": "T2, AcrIIA15 full-length", "assay": "crystal structure; Promoter EMSA: 20 mM Tris-HCl pH 7.5, 300 mM NaCl, on ice/4 C, 30 min; SaCas9 EMSA: 20 mM Tris pH 7.5, 200 mM NaCl, 10 mM EDTA, RT; SPR: 10 mM Na2HPO4, 2 mM KH2PO4, 0.3 M NaCl; SEC: 20 mM Tris pH 7.5, 300 mM NaCl", "conditions": "protein: recombinant; tags: C-terminal His6, or His6-Sumo removed by Ulp1; chain copies: 2; 5' overhang 1 nt on both strands"}, "[11]": {"biological_target": "T3, AcrIIA15 NTD (UniProt PDB:8JFR_1 1-63)", "T3 sequence": "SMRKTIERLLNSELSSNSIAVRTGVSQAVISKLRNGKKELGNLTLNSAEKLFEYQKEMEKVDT", "assay": "crystal structure; Promoter EMSA: 20 mM Tris-HCl pH 7.5, 300 mM NaCl, on ice/4 C, 30 min; SaCas9 EMSA: 20 mM Tris pH 7.5, 200 mM NaCl, 10 mM EDTA, RT; SPR: 10 mM Na2HPO4, 2 mM KH2PO4, 0.3 M NaCl; SEC: 20 mM Tris pH 7.5, 300 mM NaCl", "conditions": "protein: recombinant; tags: C-His6 or His6-Sumo (removed); chain copies: 2; 5' overhang 1 nt on both strands"}, "[12]": {"biological_target": "T4, AcrIIA15 R2A/L44A (UniProt PDB:8JG9_3 1-171, R3A;L45A)", "T4 sequence": "T1 sequence 2 with R3A, L45A", "assay": "EMSA; Promoter EMSA: 20 mM Tris-HCl pH 7.5, 300 mM NaCl, on ice/4 C, 30 min; SaCas9 EMSA: 20 mM Tris pH 7.5, 200 mM NaCl, 10 mM EDTA, RT; SPR: 10 mM Na2HPO4, 2 mM KH2PO4, 0.3 M NaCl; SEC: 20 mM Tris pH 7.5, 300 mM NaCl", "conditions": "protein: recombinant; tags: C-terminal His6; label: 5'-Cy3 on strand 1; blunt"}, "[13]": {"biological_target": "T5, AcrIIA15 K31A (UniProt PDB:8JG9_3 1-171, K32A)", "T5 sequence": "T1 sequence 2 with K32A", "assay": "EMSA; Promoter EMSA: 20 mM Tris-HCl pH 7.5, 300 mM NaCl, on ice/4 C, 30 min; SaCas9 EMSA: 20 mM Tris pH 7.5, 200 mM NaCl, 10 mM EDTA, RT; SPR: 10 mM Na2HPO4, 2 mM KH2PO4, 0.3 M NaCl; SEC: 20 mM Tris pH 7.5, 300 mM NaCl", "conditions": "protein: recombinant; tags: C-terminal His6; chain copies: 2; label: 5'-Cy3 on strand 1; blunt"}, "[14]": {"biological_target": "T6, AcrIIA15 L44A (UniProt PDB:8JG9_3 1-171, L45A)", "T6 sequence": "T1 sequence 2 with L45A", "assay": "EMSA; Promoter EMSA: 20 mM Tris-HCl pH 7.5, 300 mM NaCl, on ice/4 C, 30 min; SaCas9 EMSA: 20 mM Tris pH 7.5, 200 mM NaCl, 10 mM EDTA, RT; SPR: 10 mM Na2HPO4, 2 mM KH2PO4, 0.3 M NaCl; SEC: 20 mM Tris pH 7.5, 300 mM NaCl", "conditions": "protein: recombinant; tags: C-terminal His6; label: 5'-Cy3 on strand 1; blunt"}, "[15]": {"biological_target": "T7, AcrIIA15 K37A (UniProt PDB:8JG9_3 1-171, K38A)", "T7 sequence": "T1 sequence 2 with K38A", "assay": "EMSA; Promoter EMSA: 20 mM Tris-HCl pH 7.5, 300 mM NaCl, on ice/4 C, 30 min; SaCas9 EMSA: 20 mM Tris pH 7.5, 200 mM NaCl, 10 mM EDTA, RT; SPR: 10 mM Na2HPO4, 2 mM KH2PO4, 0.3 M NaCl; SEC: 20 mM Tris pH 7.5, 300 mM NaCl", "conditions": "protein: recombinant; tags: C-terminal His6; chain copies: 2; label: 5'-Cy3 on strand 1; blunt"}},
  "note": "Changes are numbered by the printed parent chain.",
  "data": [
    {"molecule": "full-length AcrIIA15 (natural protein)", "values": [
      {"measurement": "stoichiometry N", "setting": "[1]", "value": 2},
      {"measurement": "stoichiometry N", "setting": "[2]", "value": 2},
      {"measurement": "stoichiometry N", "setting": "[3]", "value": 2},
      {"measurement": "stoichiometry N", "setting": "[4]", "value": 2}
    ]},
    {"molecule": "full-length AcrIIA15 R2A mutant (natural protein)", "values": [
      {"measurement": "stoichiometry N", "setting": "[5]", "value": 2}
    ]},
    {"molecule": "N-terminal domain of AcrIIA15 (AcrIIA15^NTD) (domain or fragment)", "values": [
      {"measurement": "stoichiometry N", "setting": "[6]", "value": 2}
    ]},
    {"molecule": "B1", "values": [
      {"measurement": "binding result", "setting": "[7]", "value": "binds"},
      {"measurement": "Kd", "setting": "[8]", "value": "7.49 ± 0.6", "unit": "nM"}
    ]},
    {"molecule": "B2", "values": [
      {"measurement": "binding result", "setting": "[9]", "value": "no binding"}
    ]},
    {"molecule": "B3", "values": [
      {"measurement": "binding result", "setting": "[10]", "value": "binds"},
      {"measurement": "binding result", "setting": "[11]", "value": "binds"}
    ]},
    {"molecule": "B4", "values": [
      {"measurement": "binding result", "setting": "[12]", "value": "no binding"},
      {"measurement": "binding result", "setting": "[13]", "value": "no binding"},
      {"measurement": "binding result", "setting": "[14]", "value": "no binding"},
      {"measurement": "binding result", "setting": "[15]", "value": "no binding"}
    ]},
    {"molecule": "B5", "values": [
      {"measurement": "Kd", "setting": "[8]", "value": "1.8 ± 0.66", "unit": "nM"}
    ]}
  ]
}
